Measured values from US20160272683A1 (Novo Nordisk, published 2016).
Each block holds one binder with its values, some of them ahead of it. Numbered stars: 1 amine (or outer) side, 2 acyl side, 3 side chain; on linkers, the order of the positions; unused ones are H or OH. * marks the point of attachment. C20 diacid = O=C(O)CCCCCCCCCCCCCCCCCCC(=O)*; γGlu = O=C(O)[C@H](CCC(=O)[*:2])N[*:1]

Tests used:
[1] = target: T1, human amylin receptor (human calcitonin receptor + human RAMP3) (human) (UniProt P30988); assay: whole-cell competition vs 125I-rat amylin (Assay Va)
T1 sequence (looked up) 1: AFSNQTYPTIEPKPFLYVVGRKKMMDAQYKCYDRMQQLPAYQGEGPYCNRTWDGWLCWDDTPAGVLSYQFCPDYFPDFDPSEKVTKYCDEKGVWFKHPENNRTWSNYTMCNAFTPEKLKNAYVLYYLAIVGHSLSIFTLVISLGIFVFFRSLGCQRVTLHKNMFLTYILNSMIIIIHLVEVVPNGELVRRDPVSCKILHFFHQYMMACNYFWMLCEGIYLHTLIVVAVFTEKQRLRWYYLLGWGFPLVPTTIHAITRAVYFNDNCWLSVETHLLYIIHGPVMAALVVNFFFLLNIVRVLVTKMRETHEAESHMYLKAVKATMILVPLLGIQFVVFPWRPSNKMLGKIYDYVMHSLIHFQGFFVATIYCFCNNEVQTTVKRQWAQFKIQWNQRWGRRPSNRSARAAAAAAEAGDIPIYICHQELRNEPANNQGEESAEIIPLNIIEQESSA
T1 sequence (looked up) 2: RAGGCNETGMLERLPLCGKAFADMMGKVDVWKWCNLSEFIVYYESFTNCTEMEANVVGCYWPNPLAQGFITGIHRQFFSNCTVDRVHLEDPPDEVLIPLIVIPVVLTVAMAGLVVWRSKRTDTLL

[2] = target: rat calcitonin receptor (rat) (UniProt P32214); assay: SPA competition vs 125I-calcitonin, membranes with rat CTR (Assay VIII)
[3] = target: rat amylin receptor (rat calcitonin receptor with rat RAMP 3) (rat) (UniProt P32214); assay: SPA competition vs 125I-rat amylin, membranes with rat CTR + rat RAMP3 (Assay VI)

IC50 [1]: 1.23 nM | IC50 [2]: 0.044 nM | IC50 [3]: 0.025 nM
B1: [N-terminal(C20 diacid-gGlu), 1A, 23Y, 30S, 31G]mimylin (peptide)
peptide: {C20 diacid-γGlu}-AASELSTAALGRLSAELHELATYPRTETGSGSP-NH2
SMILES: CC(C)C[C@H](NC(=O)[C@H](C)NC(=O)[C@H](C)NC(=O)[C@@H](NC(=O)[C@H](CO)NC(=O)[C@H](CC(C)C)NC(=O)[C@H](CCC(=O)O)NC(=O)[C@H](CO)NC(=O)[C@H](C)NC(=O)[C@H](C)NC(=O)CC[C@H](NC(=O)CCCCCCCCCCCCCCCCCCC(=O)O)C(=O)O)[C@@H](C)O)C(=O)NCC(=O)N[C@@H](CCCNC(=N)N)C(=O)N[C@@H](CC(C)C)C(=O)N[C@@H](CO)C(=O)N[C@@H](C)C(=O)N[C@@H](CCC(=O)O)C(=O)N[C@@H](CC(C)C)C(=O)N[C@@H](Cc1c[nH]cn1)C(=O)N[C@@H](CCC(=O)O)C(=O)N[C@@H](CC(C)C)C(=O)N[C@@H](C)C(=O)N[C@H](C(=O)N[C@@H](Cc1ccc(O)cc1)C(=O)N1CCC[C@H]1C(=O)N[C@@H](CCCNC(=N)N)C(=O)N[C@H](C(=O)N[C@@H](CCC(=O)O)C(=O)N[C@H](C(=O)NCC(=O)N[C@@H](CO)C(=O)NCC(=O)N[C@@H](CO)C(=O)N1CCC[C@H]1C(N)=O)[C@@H](C)O)[C@@H](C)O)[C@@H](C)O

IC50 [1]: 3.7 nM | IC50 [2]: 0.069 nM | IC50 [3]: 1.16 nM
B2: [N-terminal(C20 diacid-gGlu), des1, 4Q, 9V, 15Q, 16R, 19R, 21Q, 23Y, 27Q, 30S, 31Q, 32T, 33Y]mimylin (peptide)
peptide: {C20 diacid-γGlu}-ASQLSTAVLGRLSQRLHRLQTYPRTQTGSQTY-NH2
SMILES: CC(C)C[C@H](NC(=O)[C@H](CCCNC(=N)N)NC(=O)CNC(=O)[C@H](CC(C)C)NC(=O)[C@@H](NC(=O)[C@H](C)NC(=O)[C@@H](NC(=O)[C@H](CO)NC(=O)[C@H](CC(C)C)NC(=O)[C@H](CCC(N)=O)NC(=O)[C@H](CO)NC(=O)[C@H](C)NC(=O)CC[C@H](NC(=O)CCCCCCCCCCCCCCCCCCC(=O)O)C(=O)O)[C@@H](C)O)C(C)C)C(=O)N[C@@H](CO)C(=O)N[C@@H](CCC(N)=O)C(=O)N[C@@H](CCCNC(=N)N)C(=O)N[C@@H](CC(C)C)C(=O)N[C@@H](Cc1c[nH]cn1)C(=O)N[C@@H](CCCNC(=N)N)C(=O)N[C@@H](CC(C)C)C(=O)N[C@@H](CCC(N)=O)C(=O)N[C@H](C(=O)N[C@@H](Cc1ccc(O)cc1)C(=O)N1CCC[C@H]1C(=O)N[C@@H](CCCNC(=N)N)C(=O)N[C@H](C(=O)N[C@@H](CCC(N)=O)C(=O)N[C@H](C(=O)NCC(=O)N[C@@H](CO)C(=O)N[C@@H](CCC(N)=O)C(=O)N[C@H](C(=O)N[C@@H](Cc1ccc(O)cc1)C(N)=O)[C@@H](C)O)[C@@H](C)O)[C@@H](C)O)[C@@H](C)O

IC50 [1]: 2.61 nM | IC50 [2]: 0.202 nM | IC50 [3]: 3.99 nM
B3: [N-terminal(C20 diacid-gGlu), des1, 23Y, 30S, 31G]mimylin (peptide)
peptide: {C20 diacid-γGlu}-ASELSTAALGRLSAELHELATYPRTETGSGSP-NH2
SMILES: CC(C)C[C@H](NC(=O)[C@H](C)NC(=O)[C@H](C)NC(=O)[C@@H](NC(=O)[C@H](CO)NC(=O)[C@H](CC(C)C)NC(=O)[C@H](CCC(=O)O)NC(=O)[C@H](CO)NC(=O)[C@H](C)NC(=O)CC[C@H](NC(=O)CCCCCCCCCCCCCCCCCCC(=O)O)C(=O)O)[C@@H](C)O)C(=O)NCC(=O)N[C@@H](CCCNC(=N)N)C(=O)N[C@@H](CC(C)C)C(=O)N[C@@H](CO)C(=O)N[C@@H](C)C(=O)N[C@@H](CCC(=O)O)C(=O)N[C@@H](CC(C)C)C(=O)N[C@@H](Cc1c[nH]cn1)C(=O)N[C@@H](CCC(=O)O)C(=O)N[C@@H](CC(C)C)C(=O)N[C@@H](C)C(=O)N[C@H](C(=O)N[C@@H](Cc1ccc(O)cc1)C(=O)N1CCC[C@H]1C(=O)N[C@@H](CCCNC(=N)N)C(=O)N[C@H](C(=O)N[C@@H](CCC(=O)O)C(=O)N[C@H](C(=O)NCC(=O)N[C@@H](CO)C(=O)NCC(=O)N[C@@H](CO)C(=O)N1CCC[C@H]1C(N)=O)[C@@H](C)O)[C@@H](C)O)[C@@H](C)O

IC50 [1]: 0.697 nM | IC50 [2]: 0.085 nM | IC50 [3]: 1.53 nM
B4: [N-terminal(C20 diacid-gGlu), des1, 12H, 30S, 31G]mimylin (peptide)
peptide: {C20 diacid-γGlu}-ASELSTAALGHLSAELHELATLPRTETGSGSP-NH2

IC50 [1]: 1.07 nM | IC50 [2]: 0.02 nM | IC50 [3]: 0.046 nM
B5: [N-terminal(C20 diacid-gGlu), des1, 30S, 31G, 33H]mimylin (peptide)
peptide: {C20 diacid-γGlu}-ASELSTAALGRLSAELHELATLPRTETGSGSH-NH2
SMILES: CC(C)C[C@H](NC(=O)[C@H](C)NC(=O)[C@H](C)NC(=O)[C@@H](NC(=O)[C@H](CO)NC(=O)[C@H](CC(C)C)NC(=O)[C@H](CCC(=O)O)NC(=O)[C@H](CO)NC(=O)[C@H](C)NC(=O)CC[C@H](NC(=O)CCCCCCCCCCCCCCCCCCC(=O)O)C(=O)O)[C@@H](C)O)C(=O)NCC(=O)N[C@@H](CCCNC(=N)N)C(=O)N[C@@H](CC(C)C)C(=O)N[C@@H](CO)C(=O)N[C@@H](C)C(=O)N[C@@H](CCC(=O)O)C(=O)N[C@@H](CC(C)C)C(=O)N[C@@H](Cc1c[nH]cn1)C(=O)N[C@@H](CCC(=O)O)C(=O)N[C@@H](CC(C)C)C(=O)N[C@@H](C)C(=O)N[C@H](C(=O)N[C@@H](CC(C)C)C(=O)N1CCC[C@H]1C(=O)N[C@@H](CCCNC(=N)N)C(=O)N[C@H](C(=O)N[C@@H](CCC(=O)O)C(=O)N[C@H](C(=O)NCC(=O)N[C@@H](CO)C(=O)NCC(=O)N[C@@H](CO)C(=O)N[C@@H](Cc1c[nH]cn1)C(N)=O)[C@@H](C)O)[C@@H](C)O)[C@@H](C)O
